Data as given in patent publication US20150086555A1.

B1: TCN-536 (5095_N01) (antibody, V domains shown)
VH: QVQLQQWGAGLLKPSETLSLTCAVYGGSFSVSGYYWSWIRQPPGRGLEWIGEISHGGSTNYNPSLKSRVTISVDTTKNQFSLRLSSVTAADTAVYYCARGTDPDTEVYCRVGNCAAFDYWGQGSLVTVSS
VL: EIILAQSPGTLSLSPGERATLSCRASQFVSTRSLAWYQQRPGQAPRLLIYGASSRATGIPDRFSGSGSGTDFTLTISRLEPEDFAVYYCQHYGYSPRYAFGQGSKVEIK
B2: TCN-530 (5248_H10a) (antibody, V domains shown)
VH: QVQLVQSGAEVRKPGSSVKVSCKASGGPFMSYAIGWVRQAPGQGLEWMGGINPVFGRPHYAQKFQGRVTIATDDSTKTSYMELSSLTSEDTGMYYCASRYSRSSPGTFESWGQGTLVTVSS
VL: EIVMTQFPATLSVSPGERVTLSCRASQSVSNNLAWYQQKPGQPPRLLIYDASTRATGVPAKFSGTGSGTEFTLSISSLQSEDFAVYYCQQYHNWPPSYSFGLGTKLEIK
B3: TCN-540 (5060_F05) (antibody, V domains shown)
VH: QVQLVQSGGGVVQPGRSLRLSCAASGFTFSSYAMHWVRQAPGKGLEWVAIISYDGNDQYYTDSVKGRFTISRDSSKVYLQMHRLRPEDTAVYYCAKEFETSGYFHGSFDYWGQGILVTVSS
VL: QSALTQPASVSGSPGQSITISCTGTSSDVGGYNYVSWYQQHPGKAPKLLIYEVTNWPSGVSNRFSGSKSGNTASLTISGLQAEDEADYYCSSYAGSSTWVFGGGTRVTVL
B4: TCN-546 (5089_L08) (antibody, V domains shown)
VH: QVQLQQWGAGLLKPSETLSLTCGVYGGSLSDYYWSWIRQPPGKGLEWIGEINHSGGTNYNPSLKRRVTISVDTSKKQFSLKMNSVTAADTAVYYCARGTDPDTEVYCRAGNCAAFDFWGQGTLVTVSS
VL: EIVLTQSPGTLSLSPGERATLSCRASHFVIGRAVAWYQQKPGQAPRLLIYGASSRATGIPDRFSGSGSGTDFTLTISRLETEDFAVFYCQHYGSSPRYAFGQGTKLEIK
B5: TCN-543 (5081_G23) (antibody, V domains shown)
VH: QVHLVQSGAEVRKPGDSVKVSCKTSGYTFSTYPVAWVRQVPGQGLEWMGWISTYNGNTNFAQNFQGRVTLTTDTTTNTAYMEVRSLKFDDTAVYYCARVEGSYRDFWNNQNRFDPWGQGTLVTVSS
VL: SYVLTQPPSVSVAPGQTARISCGGSNIGGKSVHWYQQKPGQAPVLVVYDDSGRPSGIPERFSGSNSGDTATLTISRVEAGDEADYFCQVWDNFGGVFGTGTKVTVL
B6: TCN-539 (5056_A08) (antibody, V domains shown)
VH: QVQLVESGGGVVQPGRSLRLSCAASEITFITYAMHWVRQAPGKGLEWVALISDDGSNKFYADSVKGRFTISRDNSKNTLYLQMNSLRAEDTAAYYCAREGVYFDSGTYRGYFDYWGQETLVTVSS
VL: EIVLTQSPATLSLSPGERATLSCRASQSVSSYLAWYQQKPGQAPRLLIYDASNRATGIPARFSGSGSGTDFTLTISSLEPEDFAVYYCQQRSHWPPITFGQGTRLEIK
B7: TCN-534 (5249_B02) (antibody, V domains shown)
VH: QVQLVQSGAEVKKPGSSVKVSCRESGGTFNGYTITWVRQAPGQGLEWMGGIIPMMGTVNYAQKLQGRVTITTDYFTKTAYMDLNNLRSEDTAMYYCVKIRYTGQQLLWGQGTLVTVSS
VL: DIQMTQSPSTLSASIGDRVTITCRASQSIASWLAWYQQKPGKAPKLLIYEAVNLESGVPSRFSGSGSGTDFTLTISSLQPDDFATYFCQHYGTISQTFGGGTKVEIK
B8: TCN-535 (5246_P19) (antibody, V domains shown)
VH: QVQLVQSGSEVKKPGTSVKVSCTASGSVFTNYGISWVRQAPGQGLEWMGGIIPLFGAAKYAQKFQGRVTITADESTKTVYMELSRLTSKDTAIYFCAKAPRVYEYYFDQWGQGTPVTVSS
VL: EIVLTQSPGTLSLSPGERATLSCRASQSVSSSQLAWYQQKPGQAPRLIIYGASTRATGIPDRFSGSGSGTDFTLTIGRLEPEDFAVFFCQQYSTSPPTFGQGTKVDFK
B9: TCN-538 (3206_O17) (antibody, V domains shown)
VH: QITLKESGPTLVKPTQTLTLTCVFSGFSLSITGVRVGWIRQPPGKALEWLALISWDDEKHYSPSLQSRLTITKDTSKNQVVLTMTNLDPVDTATYYCARSTDRGHVLRYFGWMLPGDAFDVWGQGTMVTVSS
VL: DIVMTQSPDFLPVSLGERATINCKSSQRVLYSSNNKNYLAWYQLKPGQPPKLIIYWASTRESGVPDRFSGSGSGTEFTLTISSLQAEDVAVYYCQQYYSRPYTFGQGTKLEIK

Target: recombinant homotrimeric HA A/duck/Yangzhou/02/05 H8N4 (Influenza A virus A/duck/Yangzhou/02/2005(H8N4))
Experiment: protein microarray, purified IgG, trimeric HA
Conditions: remark: other sources report otherwise

| Binder | Trimeric HA Binding: RLU |
| --- | --- |
| B1 | 251 RLU |
| B2 | 158 RLU |
| B3 | 318 RLU |
| B4 | 211 RLU |
| B5 | 119 RLU |
| B6 | 124 RLU |

Target: recombinant homotrimeric HA A/swine/Ontario/01911-2/99 H4N6 (Influenza A virus A/Swine/Ontario/01911-2/99 (H4N6))
Experiment: protein microarray, purified IgG, trimeric HA
Conditions: remark: other sources report otherwise

| Binder | Trimeric HA Binding: RLU |
| --- | --- |
| B1 | 126 RLU |
| B2 | 139 RLU |
| B3 | 138 RLU |
| B5 | 169 RLU |

Target: recombinant soluble homotrimeric HA of A/Egypt/3300-NAMRU3/08 (H5N1) (Influenza A virus A/Egypt/3300-NAMRU3/2008(H5N1))
Experiment: HA microarray, BCC supernatant
Conditions: remark: other sources report otherwise

| Binder | Trimeric HA Binding: RLU |
| --- | --- |
| B2 | 30400 RLU |
| B3 | 1970 RLU |
| B7 | 41400 RLU |
| B8 | 39400 RLU |
| B9 | 23600 RLU |
| B6 | 11400 RLU |
